Key:
Assay in all cases: cell-based or functional assay
CCR1 = CCR1 (UniProt P32246)
CCR3 = CCR3 (UniProt P51677)
CCR4 = CCR4 (UniProt P51679)
CCR5 = CCR5 (UniProt P51681)
CXCR4 = CXCR4 (UniProt P61073)
Chain of UniProt P61073 (P61073 whole entry): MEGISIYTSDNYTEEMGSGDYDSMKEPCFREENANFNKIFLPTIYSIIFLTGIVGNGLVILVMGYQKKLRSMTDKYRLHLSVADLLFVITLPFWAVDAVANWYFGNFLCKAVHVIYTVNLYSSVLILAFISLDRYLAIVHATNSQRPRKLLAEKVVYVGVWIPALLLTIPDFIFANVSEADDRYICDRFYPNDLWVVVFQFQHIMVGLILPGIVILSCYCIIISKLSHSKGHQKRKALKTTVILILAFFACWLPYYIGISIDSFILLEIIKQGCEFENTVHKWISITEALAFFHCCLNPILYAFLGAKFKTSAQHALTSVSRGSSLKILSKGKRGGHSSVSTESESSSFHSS

Chain of UniProt P32246 (P32246 whole entry): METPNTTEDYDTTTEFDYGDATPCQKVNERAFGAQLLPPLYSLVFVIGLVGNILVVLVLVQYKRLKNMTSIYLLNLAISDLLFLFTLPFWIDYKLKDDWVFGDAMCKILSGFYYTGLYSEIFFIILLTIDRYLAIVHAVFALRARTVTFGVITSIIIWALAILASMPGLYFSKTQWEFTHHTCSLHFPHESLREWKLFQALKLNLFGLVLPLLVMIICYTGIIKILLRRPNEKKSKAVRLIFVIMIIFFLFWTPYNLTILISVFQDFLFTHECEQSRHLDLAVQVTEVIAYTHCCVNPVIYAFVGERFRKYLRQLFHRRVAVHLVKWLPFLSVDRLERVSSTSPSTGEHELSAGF
Chain of UniProt P51679 (P51679 whole entry): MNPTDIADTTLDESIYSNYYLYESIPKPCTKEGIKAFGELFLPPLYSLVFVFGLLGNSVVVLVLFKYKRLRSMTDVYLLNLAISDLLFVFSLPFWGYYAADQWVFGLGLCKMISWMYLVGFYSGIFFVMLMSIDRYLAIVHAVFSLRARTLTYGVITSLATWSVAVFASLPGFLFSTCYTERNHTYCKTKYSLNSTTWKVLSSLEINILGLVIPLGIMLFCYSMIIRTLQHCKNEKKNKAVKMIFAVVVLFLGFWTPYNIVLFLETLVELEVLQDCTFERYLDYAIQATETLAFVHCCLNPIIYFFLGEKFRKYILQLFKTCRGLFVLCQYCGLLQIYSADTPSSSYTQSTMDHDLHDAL
Chain of UniProt P51681 (P51681 whole entry): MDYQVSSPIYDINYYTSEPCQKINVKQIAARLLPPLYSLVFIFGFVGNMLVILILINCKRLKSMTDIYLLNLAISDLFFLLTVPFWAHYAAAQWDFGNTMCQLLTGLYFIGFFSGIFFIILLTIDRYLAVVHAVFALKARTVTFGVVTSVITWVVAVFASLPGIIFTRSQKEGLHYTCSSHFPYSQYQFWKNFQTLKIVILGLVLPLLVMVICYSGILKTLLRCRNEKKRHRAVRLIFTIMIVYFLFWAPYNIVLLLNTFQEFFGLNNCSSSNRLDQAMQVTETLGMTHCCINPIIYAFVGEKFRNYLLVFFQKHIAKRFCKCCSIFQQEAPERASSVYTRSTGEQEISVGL
Chain of UniProt P51677 (P51677 whole entry): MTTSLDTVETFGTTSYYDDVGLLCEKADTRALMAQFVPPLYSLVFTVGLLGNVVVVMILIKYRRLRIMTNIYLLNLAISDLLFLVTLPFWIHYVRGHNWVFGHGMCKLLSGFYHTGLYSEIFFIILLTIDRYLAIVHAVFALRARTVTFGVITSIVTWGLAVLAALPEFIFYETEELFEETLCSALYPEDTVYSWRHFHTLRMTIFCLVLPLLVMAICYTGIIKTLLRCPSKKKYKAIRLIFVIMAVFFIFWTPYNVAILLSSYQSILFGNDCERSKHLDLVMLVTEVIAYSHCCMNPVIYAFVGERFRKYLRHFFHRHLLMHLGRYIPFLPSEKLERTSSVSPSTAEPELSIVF

Substance | Infectivity Titer In HOS-CD4 Cells Expressing CCR1 (CCR1) | Infectivity Titer In HOS-CD4 Cells Expressing CCR3 (CCR3) | Infectivity Titer In HOS-CD4 Cells Expressing CCR4 (CCR4) | Infectivity Titer In HOS-CD4 Cells Expressing CCR5 (CCR5) | Infectivity Titer In HOS-CD4 Cells Expressing CXCR4 (CXCR4)
HIV-1 AD8 envelope | < 4 titer (1:x) | < 4 titer (1:x) | < 4 titer (1:x) | 256 titer (1:x) | < 4 titer (1:x)
HIV-1 NL4-3 envelope | < 4 titer (1:x) | < 4 titer (1:x) | < 4 titer (1:x) | 32 titer (1:x) | > 256 titer (1:x)
